Experiment: soluble on expression in E. coli; label from the status in PepcDB or PDB records

Sequence	soluble on expression in E. coli
GPGSMSYHGPNREGLGEDLEEAEEAFIDLEDPNIEILDEAALPEEDGDDASDVVDNHAGMDVQDRGNEEEGEGLHLGVEVEDLNAAPDYEPEHDDAFATFVAPAKKPLHAIAVHPQNERIFAVGGEGEEVYILEMDHAGKEPALKATLTGHTDTVSLLSFSPNGQWLASGSLDSSVAVWSTETWERKHTLGDLYGEIMTLLWHPSSLILAAGADDAQAAMWNVVKGTLIMYFVGHRGAVTCTAWSPDVKKLVTGSSDGTVAVFNPKTGDQELCISKDLSPDNAGITALQFVNADQCVVGCEDGTLHVISLRSGKVATHFEDLHEQAIESLAINRSSLLLLTASCDCRVIVWNVADFSPRATVEVGESVIPALWSHSNLIAAGCSDGNIRVWDGRSSAQDPLALLMGHRRMVLGLVTTSTVLASTSDDGTAKFYRFAETFR	soluble
MDFHRALSALFTNQAAVQPLLGSLGFPFNDGTSILTTALAAQSGGKKLDTPLGILPFDSLPTTNLLTPTKKIKLEDELCASPVSSRSSTVSSSHFSSPQRSPSRKMSVPIPEEKKDSAYFERRRKNNDAAKRSRDARRQKEEQIASKAHALERENMQLRGKVSSLEQEAAQLRFLLFSKISPANSEVSCESNDSTETNDSNDSKSDSTIEV	not soluble
MGSDKIHHHHHHMALRIYGDSISGNCLKVKWTADRLGIAYDWIETNVLTAETRTSAFMALNPAGQVPLAVFPDGRPLAQSNAIIFHLAEGSDLIPGNAFDRAKMLEWMFWEQYSHEPYIAVARFQVLYLGKPVESLEPRLIERGADALARLETQLQRSTFLVGDKLTLADVALVAYTRVAHEGGFDLSLYPAVEAWVGRVEADLGIR	not soluble
GPGTFGTAKARYDFCARDRSELSLKEGDIIKILNKKGQQGWWRGEIYGRIGWFPSNYVEEDYSEYLPETGGGSGSSMTYKLILNGKTLKGETTTEAVDAATAEKVFKQYANDNGVDGEWTYDDATKTFTVTEHSLEHHHHHH	soluble
MAHHHHHHMMEERYNPFTGYQTPRHQQQSYRHNGGAMSRGGWGERVDAPADKMKPVDWTRVKLVPGSWKVLDTKAIHRAAHAKAEVVPAKQLTEEESNEWRETHTISIFGEGCPPPLSNFDQLSAFVPAYLQKKLTAQGFTSPTAVQAQAWPILLRGRDMVGVAKTGSGKTLAFMVPALAHIAMQEPLRTGDGPMVVVLAPTRELAQQIEQETKKVLPHDLRCGCVYGGAPKGPQLGILRNGVHILVATPGRLIDFLEIKRVNFFRVTYLVLDEADRMLDMGFEPQVRAICGQIRPDRQTLMFSATWPKEIQRLAAEFQKDWIRINVGSTELLANKDVTQHFILTQEHAKMEELKKLLANHRNQRVLIFCKTKRTADDLEWQLKRWGYDAMAIHGDKEQRQREFILERFRKDPRLCLVATDVAARGLDIKELETVINYDFPMQIDDYVHRIGRTGRAGAKGEAFTLITKREQQITPAVVTELIAIVDRAQQQVPDWLREWGEQRPRYQVMKRNRNMMGFGSSRHMPALYNGNRASFDAAGGGHPGNNNGTAGNKRGGEGGVFGLARHGSNGAAPFSSSRIEYKRFDDSDDDDGAAPPAKKRSK	soluble
EDLPTARVGVDYTSDSQVGGTLDLGRRFGDNNQFGARVNLVHREGEGAIDNDKRRTTLASLGLDYRGDRFRSSLDFGYQKKTFHGGTMGVNISGVDFIPALPDNSKNYSQKWGYSDIESEFGMAKAEYDLTDSWTVYSALGGQHSHEIGTYSAPKLLNKNGDATVGRLDTNRIIDAISGMGGVRGDFNTGAISHKVNLGYAAQVHTDATAWRMSARNPTTNIYDNHDVAMPDNAYFGGNYHDPLITSRSRTQGWLLSDTLGFFNDKVLFTAAARHQKVVVRNYSNATGLEDTSSRYTQSRWMPTFGLVYKPWEQLSLYANHTEALQPGSVAPTTAANAGQSTGIAHSKQDEVGVKIDYGTIGGSLALFEIKKPNAISDTAGNYGLDGEQRNRGVEMNVFGEPMLGLRLNASTVWLDAKQTKTAEGATDGKDAIGVANFYAVLGAEYDIKPVEGLTATARVNHSGSQYADAANTKKLDSYTTLDLGLRYRMRLNADQNEMIWRVGVTNVTNEKYWSGIDDTGTYLFEGDPRTVRVSMSYDF	not soluble
AAGSINTLAQAEVRSRQISVSSPGSSTDINVKKIASIGDVCESMKQQLLVLVEWAKYIPAFCELPLDDQVALLRAHAGEHLLLGATKRSMMYKDILLLGNNYVIHRNSCEVEISRVANRVLDELVRPFQEIQIDDNEYACLKAIVFFDPDAKGLSDPVKIKNMRFQVQIGLEDYINDRQYDSRGRFGELLLLLPTLQSITWQMIEQIQFVKLFGMVKIDNLLQEMLLGG	soluble
NELDVPEQVDKLIQQATSIERLCQHYIGWCPFW	soluble
MSTKTMKEKAVELLQKCEVVTLASVNKEGYPRPVPMSKIAAEGISTIWMSTGADSLKTIDFLSNPKAGLCFQEKGDSVALMGEVEVVTDEKLKQELWQDWFIEHFPGGPTDPGYVLLKFTANHATYWIEGTFIHKKLD	soluble
MEYIYASLLLHSAKKEISEDALKNVLTAAGISVDEVRLKAVVAALKEVNIDEVLKNAAAMPVAVAAQPQATQAQPAAEEKKEEKKEEEKKGPSEEEIASGLASLFGLEHHHHHH	not soluble
MGSDKIHHHHHHMNELTEFNARNDLDNELASTVSDILAKAIKEKGKASIAVSGGSTPKGFFSVLSQSDIDWSKVTITLADERWVPIDSEASNTRLVHENLLQNKAEKAKFFHLKQGDELTDETLEDLNVAASKILLPLDVLILGMGEDGHTASLFPCSDQITSGLDETNDAALLKVQPKTAPHQRISFTFASLMTSKNIFLHSCGEGKKTVLTQVLNGDDPFEMPIRAFLQHPSLNTQIFWAP	not soluble
MEEVTIKANLIFANGSTQTAEFQGTFEQATSEAYAYADTLKQDNGEWTVDVADQGYTLNIQFAG	soluble
GLISDIIACPGMDYCALATARSIPVAQEIATRFEELKLEHEIGALKIKISGCINACGHHHVGHIGILGLDRAGVENYQITLGGDATETAAIGERTGPGFAYDQIVPAVERIVETYLDQRRDREESFIETYRRVGMAPFKAALYPE	not soluble
MKSEKETIYDYAAELKLLSFKEELECTLSLAAEENWNHLQFLTELLGKESARRRECRRRSRIRSAGFPQMKYLHELVMEDMPKEAQVILPELETLDFIRQGRNLVLYGNPGTGKTHIATALGIKACQQDFTVLFTSVPVLLTQIREAKSAKTLRTLQLRFEKYDLVICDEFGYVSCDKEGGELLFNHLSLRAGKKATIITTNLAFNRWNEIIKDKVLVAAMVDRLTHKAYLVNMTGLSYRLKETQKMRQDKLEHHHHHH	not soluble
MRKISVFDTTLRDGEQSAGVNLNFEEKMEIAKQLERLGVDIIEAGFPASSQGDFQSVKAIAETVKGSSVTGLARSVQKDIDAAWEALKSAEEPRIHLFIATSPIHMEHKLRMTPEQVIEKAVESVKYAASRFKHVQWSAEDASRSDFPFLAQIIEAVIQAGATVINLPDTVGYTTPQEIKRMFQYMKQNVPSIDKVSLSTHNHDDLGMAVANSLAAIQGGADQVECTINGIGERAGNASLEEIAVALNIRKDHYETETGLILKEIKRTSSLVSKLTGMVVPNNKAVVGANAFAHESGIHQDGVLKNKQTYEIITPEMVGVSSNSMVLGKHSGRHAFKTKVQELGFTGTDEQLNNIFKAFKDLADKKKEITEDDLFALMTEQTVGGETNHYELQTLQVNYGSNLTNTATITMKLPSGEVAEEAATGSGSVEAIYNTLERLLDAPVKLLDYRIQSITGGRDALADVYVQMDYQGVVSSGRGTAHDVLEASAKAYLNAVNRTINRKKYAEVYGSKVEV	soluble
KLEFREVDKDALVNDEKLLREFFGIYVLAHYRNRPSDLAILLDMPNHLPFIVTVNGKPVCSLHIAVEGNLDDETIEKIKEGYKPKGQIIPDLMLKHYWDFEFPKLVGARVVRIATHPSVMDMGIGSFALAKIVEWAYGRDMDWVGSGFGVSPELLRFWAKNHFTPVHITPQRNE	not soluble
MGSSHHHHHHSSGLVPRGSHMDKGKSVKSTEKSVGMPPKTPKTDNNAHVDNEFLILQVNDAVFPIGSYTHSFGLETYIQQKKVTNKESALEYLKANLSSQFLYTEMLSLKLTYESALQQDLKKILGVEEVIMLSTSPMELRLANQKLGNRFIKTLQAMNELDMGEFFNAYAQKTKDPTHATSYGVFAASLGIELKKALRHYLYAQTSNMVINCVKSVPLSQNDGQKILLSLQSPFNQLIEKTLELDESHLCTASVQNDIKAMQHESLYSRLYMS	soluble
MGSDKIHHHHHHMAQIIVVTSGKGGVGKTTSSAAIATGLALKGKKTVVIDFDIGLRNLDLIMGCERRVVYDFVNVINGEANLNQALIKDKRCDKLFILPASQTRDKDALTKEGVGRVLENLAKDFDYIVCDSPAGIEQGAMMALYFADIAIVTTNPEVSSVRDSDRILGMLQSRSRRAELSLEPIKEYLLLTRYSPARVKTGEMLSVEDVKEILAIELLGVIPESQSVLKASNSGVPVIIDQESDAGLAYGDTVARLLGDDVPVRFITEEKKGFLKRIFGS	not soluble
GHMAKTDRSQPSVLARIAAFRTGLSAEASAADYLERQGYRILARRFKTRCGEIDLVAQRDALVAFVEVKARGNVDDAAYAVTPRQQSRIVAAAEAWLSRHPEHAMSELRFDAILIAPNTAPRHLPGAFDATPGS	soluble
MGSDKIHHHHHHMSTYKINNEQLTLIKEMPFKLEKEIQNIVERNLQTLLGLDFIKTEFSIGSFRIDSLAFDSEKKSFVIIEYKRDKNFSVIDQGYAYLSLMLNNKAEFILEYNESKSGALKRNDVDWSQSKVLFVSPNFTTYQKEAINFKDLPIELWEIKRFTNDTLSFGQIVNRSSKESIKTVSNSEAITTVSKEIKVYSEQDHLENIKDDFLNIYTEIKEFLLSFGEDITIYPKKKTIGFKIGGKVFCDIVMQNKGIRLFLNAKKGTLKDPEGITRDVSEVGHWGNGAYEVRFPLKNDAEIDFVFNLLRQTINKNKE	not soluble
MDIISLRKSPQYLEEAIAYFQRKWADENSRMVYDNCFRTCLESESPLPQWYLLINGEGEIIGCAGLATNDFNSRMDLYPWLVALFIEEQYRGHNYGNLLIKAVEEDTRRLGFGNLYLCTTHTGYYEHFNFVYIGDCYHPWGEHTRVYQKEI	soluble
MGSDKIHHHHHHAQNGNVLGQVIRLPKSKGNIYQLLGLVTERSGYLFIYDSKIIDNEQTTSIKGGDYTIQEAIYAITGNKNLAIRAIENHLLLYLPESPSAPKSASVTPDSIQTYFSIEGSLQDQYTHEPIAFGSVGIGEAAIGTITNQNGEFRLKLPDSLRLSKVRFSHIGYLPQEIDSRELIDKHTVLSLEPKVISIQEVIVRLTNPKRLLQEMLDKRRSNYSQHPIYLTTFYREGVERKKGLVGLTEAVFKVYKASYHSNALADQVKLLKMRRISNEQEKDTLITKMKSGIYSCLVLDLMKQLPEFLDPSPDSPYTYAHTDITVVDDRLANVISFEQRKSINEPLYRGQIYIDMENNALLRVDFEVNPQYIEQAAGMFVERKSRNLRITPQKVAYTVSYKQWNGTYYINHIRGDLHFKIKKRRQLFNTNILHTWFEMVTCKIDTANVNRFSRIESLPTRTVFSDTHFNYDEGFWGDFNVILPEDKLNEAISRITSKIEETNY	not soluble
METQENMIKTALQAAQKPFFEFAPNNTPLVFTPDQDGGWRYKSHPELMQNPYRKCGKFLMHDTASLIKFVQKHKQDGTQIYIDADFKSGRIDVTAVINGHTQQAPGWLDFYAVYTPQHTTSASNWLNNNAHRMNQMEFSHFLTNNARNIVSKNPGNENSVYPTAAEVLDFALNLEYTEKTTFKQGYREQDGRINFTFQSEDSGQTEKNLKMFERFGIEFTPHQGGASYFVEALLKFRIDKNSGALVLWYELQQIDAVIEQAAKDISEAVQKAFPEIDIYFGVIA	soluble
